Measurements: FireProtDB (doi:10.1021/bi972642d)

Settings: Bos taurus; pH 7; 25 °C; Urea; CD; Potassium phosphate 10 mM; whole UniProt chain shown

B1: Protein S100-G wild type, P02633 (protein)
chain: MSAKKSPEELKGIFEKYAAKEGDPNQLSKEELKLLLQTEFPSLLKGPSTLDELFEELDKNGDGEVSFEEFQVLVKKISQ
- denaturant m value: 1.17 kcal/mol/M
- denaturant midpoint (higher = more stable): 5.6 M
- unfolding free energy: 6.55 kcal/mol
